In paper PMC10653854 one finds stoichiometry N data, which are given here for one substance.

Experiment [1] concerns the target Zika virus (ZIKV) soluble E ectodomain (sE) (Zika virus). Kind of experiment: SEC-MALS.
Experiment [2] shares this target. Kind of experiment: SEC-MALS; pH 8.0; isolated proteins sampled individually; Superdex 200.

With “Zika virus (ZIKV) soluble E ectodomain (sE) (domain or fragment)”, the stoichiometry N in experiment [1] and in experiment [2] was 2 in each case.
